Test [1] deals with HLA-C*03:03. The test can be described thus: IEDB peptide-MHC binding, purified MHC/direct/fluorescence; filed as Kd, often an IC50 or EC50 that approximates it; ≥ and ≤ were set here for values at or beyond the usual limits of such assays. Particulars: source organism: Rickettsia bellii RML369-C.
In test [2] the target is HLA-C*05:01. The test is described as above. Particulars: source organism: Rickettsia bellii RML369-C.
Test [3] deals with HLA-A*02:11. The test can be described thus: IEDB peptide-MHC binding, purified MHC/competitive/fluorescence; filed as Kd, often an IC50 or EC50 that approximates it; ≥ and ≤ were set here for values at or beyond the usual limits of such assays. Particulars: source organism: Rickettsia bellii RML369-C.
In test [4] the target is HLA-A*29:02. The test is described as above. Particulars: source organism: Rickettsia bellii RML369-C.
Test [5] addresses HLA-A*80:01. Described as above.
Test [6] addresses HLA-B*18:01. The test is described as above. Particulars: source organism: Rickettsia bellii RML369-C.
Test [7] deals with HLA-A*03:01. The test is described as above. Particulars: source organism: Rickettsia bellii RML369-C.
Test [8] has as its target HLA-B*57:01. The test is described as above. Particulars: source organism: Rickettsia bellii RML369-C.
Test [9] deals with HLA-A*02:01. Described as above. Particulars: source organism: Rickettsia bellii RML369-C.
The target in test [10] is HLA-B*27:03. Described as above. Particulars: source organism: Rickettsia bellii RML369-C.
In test [11] the target is HLA-A*23:01. The description is as above. Particulars: source organism: Vibrio parahaemolyticus K5030.
The target of test [12] is HLA-B*07:02. As to the kind of experiment: IEDB peptide-MHC binding, purified MHC/competitive/fluorescence; ≥ and ≤ were set here for values at or beyond the usual limits of such assays. Particulars: source organism: Callithrix jacchus.
For test [13], the target named is HLA-B*53:01. The description is as above. Particulars: source organism: Callithrix jacchus.
Test [14] concerns the target HLA-A*01:01. As to the kind of experiment: IEDB peptide-MHC binding, purified MHC/direct/fluorescence; filed as Kd, often an IC50 or EC50 that approximates it; ≥ and ≤ were set here for values at or beyond the usual limits of such assays. Particulars: source organism: Influenza A virus (A/swine/Chiai/77-10/2001(H3N1)).
For test [15], the target named is HLA-B*39:01. The description is as above. Particulars: source organism: Influenza A virus (A/turkey/NC/17026/1988(H1N1)).
Test [16] addresses HLA-B*48:01. Described as above. Particulars: source organism: Influenza A virus (A/swine/Chiai/77-10/2001(H3N1)).
In test [17] the target is HLA-B*27:05. The test is described as above. Particulars: source organism: Influenza A virus (A/swine/Chiai/77-10/2001(H3N1)).
The target of test [18] is HLA-A*69:01. The description is as above. Particulars: source organism: Influenza A virus (A/swine/Chiai/77-10/2001(H3N1)).
The target in test [19] is HLA-B*08:02. Described as above. Particulars: source organism: Influenza A virus (A/turkey/NC/17026/1988(H1N1)).
Test [20] deals with HLA-B*18:01. Described as above. Particulars: source organism: Influenza A virus (A/swine/Chiai/77-10/2001(H3N1)).
Test [21] has as its target HLA-B*15:01. The test is described as above. Particulars: source organism: Influenza A virus (A/swine/Chiai/77-10/2001(H3N1)).
The target of test [22] is HLA-A*31:01. The test is described as above. Particulars: source organism: Influenza A virus (A/swine/Chiai/77-10/2001(H3N1)).
The target in test [23] is HLA-B*46:01. The test is described as above. Particulars: source organism: Influenza A virus (A/swine/Chiai/77-10/2001(H3N1)).
In test [24] the target is HLA-A*03:01. The test is described as above. Particulars: source organism: Influenza A virus (A/swine/Chiai/77-10/2001(H3N1)).
The target in test [25] is HLA-B*57:01. The description is as above. Particulars: source organism: Influenza A virus (A/swine/Chiai/77-10/2001(H3N1)).
Test [26] deals with HLA-B*07:02. The description is as above. Particulars: source organism: Influenza A virus (A/swine/Chiai/77-10/2001(H3N1)).
Test [27] has as its target HLA-A*26:01. Described as above. Particulars: source organism: Influenza A virus (A/turkey/NC/17026/1988(H1N1)).
Test [28] addresses HLA-B*15:09. Described as above. Particulars: source organism: Influenza A virus (A/turkey/NC/17026/1988(H1N1)).
The target in test [29] is HLA-B*08:01. Described as above. Particulars: source organism: Influenza A virus (A/turkey/NC/17026/1988(H1N1)).
The target in test [30] is HLA-B*15:17. The test is described as above. Particulars: source organism: Influenza A virus (A/swine/Chiai/77-10/2001(H3N1)).
For test [31], the target named is HLA-B*58:01. Described as above. Particulars: source organism: Influenza A virus (A/swine/Chiai/77-10/2001(H3N1)).
Test [32] addresses HLA-A*02:01. The test is described as above. Particulars: source organism: Influenza A virus (A/swine/Chiai/77-10/2001(H3N1)).
For test [33], the target named is HLA-B*40:01. Described as above. Particulars: source organism: Influenza A virus (A/swine/Chiai/77-10/2001(H3N1)).
The target in test [34] is HLA-A*11:01. The test can be described thus: IEDB peptide-MHC binding, purified MHC/competitive/fluorescence; filed as Kd, often an IC50 or EC50 that approximates it; ≥ and ≤ were set here for values at or beyond the usual limits of such assays. Particulars: source organism: Influenza A virus.

As to FTIGNMFSL, the Kd was 55 nM in [1]; no less than 20 µM in test [2]; 5.9 nM in test [3]; 738 nM in test [4]; no less than 20000 nM in [5] (source organism: Rickettsia bellii RML369-C); no less than 20 µM in test [6]. In addition, the Kd in test [7] is no less than 20 µM; in test [8], no less than 20 µM; in test [9] it was 24.4 nM; in test [10], no less than 20 µM.
With SYHNVDQLK, in test [11], the Kd was no less than 20 µM.
With VPIAWAAA, the figures for the IC50 in [12] and in [13] were 144 nM and no less than 20 µM, respectively.
Consider VSFDQNLDY, for which the Kd in test [14] was 117 nM; in test [15], no less than 20 µM; in test [16], no less than 20 µM; in test [17] it was no less than 20 µM; in test [18] it was no less than 20 µM; in [19], no less than 20 µM. For the same sequence, the Kd was no less than 20 µM in [20]; 19 nM in [21]; no less than 20 µM in [22]; no less than 20 µM in test [23]; 6.5 µM in test [24]; no less than 20 µM in test [25]. For the same sequence, the equilibrium dissociation constant (Kd) in test [26] was no less than 20 µM; in [27] it was no less than 20 µM; in test [28], no less than 20 µM; in test [29], no less than 20 µM; in test [30], 1.6 nM; in test [31], 3.44 µM. Besides, the Kd is no less than 20 µM in [32], no less than 20 µM in test [33], 98.7 nM in test [34] and 18.4 nM in test [5] (source organism: Influenza A virus).

For orientation: Kd means the free concentration of one partner at which half of the binding sites on the other are occupied at equilibrium, for simple one-to-one binding. Higher therefore signals weaker binding. The term IC50 denotes the concentration that gives 50% inhibition.

The values above are taken from the Immune Epitope Database (IEDB).
